Sequences and labels used below:
B1: Catenin beta-1 (Homo sapiens), P35222 (parent)
chain: MATQADLMELDMAMEPDRKAAVSHWQQQSYLDSGIHSGATTTAPSLSGKGNPEEEDVDTSQVLYEWEQGFSQSFTQEQVADIDGQYAMTRAQRVRAAMFPETLDEGMQIPSTQFDAAHPTNVQRLAEPSQMLKHAVVNLINYQDDAELATRAIPELTKLLNDEDQVVVNKAAVMVHQLSKKEASRHAIMRSPQMVSAIVRTMQNTNDVETARCTAGTLHNLSHHREGLLAIFKSGGIPALVKMLGSPVDSVLFYAITTLHNLLLHQEGAKMAVRLAGGLQKMVALLNKTNVKFLAITTDCLQILAYGNQESKLIILASGGPQALVNIMRTYTYEKLLWTTSRVLKVLSVCSSNKPAIVEAGGMQALGLHLTDPSQRLVQNCLWTLRNLSDAATKQEGMEGLLGTLVQLLGSDDINVVTCAAGILSNLTCNNYKNKMMVCQVGGIEALVRTVLRAGDREDITEPAICALRHLTSRHQEAEMAQNAVRLHYGLPVVVKLLHPPSHWPLIKATVGLIRNLALCPANHAPLREQGAIPRLVQLLVRAHQDTQRRTSMGGTQQQFVEGVRMEEIVEGCTGALHILARDVHNRIVIRGLNTIPLFVQLLYSPIENIQRVAAGVLCELAQDKEAAEAIEAEGATAPLTELLHSRNEGVATYAAAVLFRMSEDKPQDYKKRLSVELTSSLFRTEPMAWNETADLGLDIGAQGEPLGYRQDDPSYRSFHSGGYGQDALGMDPMMEHEMGGHHPGADYPVDGLPDLGHAQDLMDGLPPGDSNQLAWFDTDL

The assay covers variants of B1. Particulars: with src_human SRC.
For Y333F, the “effect of a mutation on the interaction” value is listed as “decreasing interaction”.

These data come from IntAct's records for PubMed 22056988.
